The values below come from patent publication US20060088535.

The test system of this series is ApCREB-1 (Aplysia californica). Nature of the series: cell_activity. The following applies: F9 cells with PKA; 2.13 without PKA; 1.64 with ApCREB-2 plus PKA.

For the sequence “TGACGTCA (double strand) [single CRE palindrome in pGL3-CRE reporter]”, the activity (fold activation) was 10.5.
